# Laboratory results published in the DeepSol protein solubility set.
# Assay: soluble on expression in E. coli; label from the status in PepcDB or PDB records
row,Sequence,soluble on expression in E. coli
1,MKVGVFTVLYQQLPLEDMLDKVAAMGIEAVELGTGNYPGNAHCDPDALLDQPEKIKALKKAVADRGLVISALSCHGNPLHPDKTFAKQSHDTWRKTVRLAEQLEVPVINAFSGCPGDHPGAKYPNWVTCSWPPDYLEILKWQWEEVVIPYWREEAAFAKEHGITQIAFEMHPGFVVYNPETLLKLREHVGEAIGANFDPSHLLWQGIDPVEAIKLLGREKAIFHVHAKDTYLDEANIRKNGVLDTKHYSQILDRSWVFRTVGYGQSEKMWRDIVSALRAVGYDYVLSIEHEDMLASIDEGLSKAVALLKKVLFKEELPEMWWA,not soluble
2,MTESEVRKLLRQMKELDSQTAFRDFYNMTYDRLFRIAYYYVKQEEWSQEIVLDIFLKLWKQRDTLLDVKNIEDYCFILVKNASLNYLEKESKYTTIHSDSLPEPQEQSYSPEESLISEELFAIYVKALDRLPERCREIFIRIREEKQSYAQVAEELDISIKTVDAQLQKAVSRLKEMISSSG,not soluble
3,NPAIAMTEKEIKEYGFPFDARFCSLPLVHADDLKQIFGRYASEVCCRYLRPFDSDYYTLATKNFYQTDIAALDPTAVVGGEDTIRGLMRVATEVCFVIESGKPGAFHPRIHFEKSFRYAHLSLEEKKAWQRLSDDYFHKRNDDLWKQEALSRLIPLLSSTDMLVCVEDLGMIPPAVPVVMEQLQLLSLILERISKEPGQDFADMSRQPYCSVCTTSTHDMAPLRLWWQENELPRRHYYSMILGEKGTAPETCTPETARRILRQHLLSTSMLAIFPLADWLSLSGELQGIVAPEDEQINKPEISDHYWRYRMPISIESLSEDYRELNESIASLIRTSGRG,not soluble
4,MGDNQVTGGDIHKLWMTAHMDISAVEDAYIKLTEQLDGDVAEGDEGKYGKAFDSWNIYREIVQLALFRTAVSARATRLALDLAVSEFTFVDGDAANGITDAGKEFLEAVGDENQTPPEYVVEPEGDPVAPLGNDE,not soluble
5,EFSGSFNRQFKLNKPVIPVNTEYVTRKEFNEYKDSNDQRLTKIENKVDKLEIKVDKLEKKVDKLEVKVDKLVETVNAQGEDLNNFKVEVRGTLQSQGETLQLILQTLQGMSKRLDSVEGRLDSMDGRLDSMETRLDKID,soluble
6,MTVFVDHKIEYMSLEDDAELLKTMAHPMRLKIVNELYKHKALNVTQIIQILKLPQSTVSQHLCKMRGKVLKRNRQGLEIYYSINNPKVEGIIKLLNPIQ,soluble
7,MVMSSEGGEDRWVFGYGSLMWRPGFPFIDRRTAVLHGRRRAFCIYSVHHRGTYERPGLVLGLAPGGSVRGMAYRVAAAEWEGVYAYLREREQPTETYFETWREVKVDGGDKAPALVFLSDMKHSQWAGDLTLEQQAALIAGAVGLSGPNIDYLRDLVMHLHEDGVRDHAMEKLLKMVEAREAALEHHHHHH,not soluble
8,MRYFKRRVGSGRVYMVMDNYSPHKTKGTLEVCCRKGIHPVFTPPYSPELNMAEAVFKSLKNYMSNKIFYTIEDVKNCIKQFFEENKYRFNLNAITYLGLDKIEV,soluble
9,MSLPDEQGRRTVTLETAEEALLKRAVVYDHDGDEHYHVASALIKSIRGSDPDAALYWLARMLYAGEDPRFIARRLVISAAEDIGLADPQALVIAQAAADAVSFIGMPEGRIPLAEAVVYLACAPKSNSAYLAIDRALAVVEREKTPPVPNHLKDTGYGSDQRLGYGKGYQYPHDFPGAWVEQRYLPEGVDGPFWEPKGYGREAELARLLRERRGREGHHHHHH,soluble
10,MEQFRNIGIIGRLGSVQVLDTVRRLKRFLLDRHLHVILEETIAEVLPGHGLQTSSRKMLGEVCDMVIVVGGDGSLLGAARALARHNVPVLGINRGSLGFLTDIRPDELEVKCAEVLDGHYLVENRFLLQAEVRRHGEAIGQGDALNDVVLHPGKSTRMIEFEIYIDGQFVCSQKADGLIVATPTGSTAYALSAGGPIMHPKLDAIVIVPMYPHTLSGRPIVVDGNSELKIVVSKDMTIYPQVSCDGQNHFTCAPGDTITVSKKPQKLRLIHPLDHNYYEVCRTKLGWGSRLGGGGDLEHHHHHH,soluble
11,MGSKISIINHINTIRYYLKKNEVEDKVEDPAGAAEPESTEAFGTFISPSTGMEFIMAPAGEFLMGSSPEEKGRSYSESPVHRVTIKNPFYIGKYQVTQKQWKTIMGTSPSNFNEDFRPVELVSWEDVQEFIGKLNAMENTTKYRLPSEAEWEYACRAGKQSRYFFGEDESKLGDYAWYARNAGRKTHPAGRKKPNRWGLYDMCGNVWEWVQDSWHEDYNGAPSDGSAWEDGNSSNRVSRGGSWYCSTNSCRSASRFSREPEKHLANLGFRLVKELLEHHHHHH,not soluble
12,MSLASRQAIGFIAPSLAGEFMTGVMEGILQSLRKHQYDLIAVQGAPQHLINNQLAKQHIKAWIVIIDPTGLNELATNMPAVVISAPNAGERFPLVMPDNNQSARAMVEHLIEHGHSKIAFVGNFNNSDMRDRYTVYCDVLNEHSITPNPAWVVDVGDYTEGRTEHAFYPLIANGLNFSAVVAANDQQAVGVMMALETKGYRVPHDMAVVGFDDATIAQHANPPLTTVRQQPQLLGSIAADTVIELIAGKPVSNAPIYVPTIPIWRQSCGCKDVYTGIKEGHHHHHH,not soluble
13,MSLRVTDFSFELPESLIAHYPMPERSSCRLLSLDGPTGALTHGTFTDLLDKLNPGDLLVFNNTRVIPARLFGRKASGGKIEVLVERMLDDKRILAHIRASKAPKPGAELLLGDDESINATMTARHGALFEVEFNDERSVLDILNSIGHMPLPPYIDRPDEDADRELYQTVYSEKPGAVAAPTAGLHFDEPLLEKLRAKGVEMAFVTLHVGAGTFQPVRVDTIEDHIMHSEYAEVPQDVVDAVLAAKARGNRVIAVGTTSVRSLESAAQAAKNDLIEPFFDDTQIFIYPGFQYKVVDALVTNFHLPESTLIMLVSAFAGYQHTMNAYKAAVEEKYRFFSYGDAMFITYNPQAINERVGEEGGSHHHHHH,soluble
14,MALNVAPVRDTKWLTLEVCRQFQRGTCSRSDEECKFAHPPKSCQVENGRVIACFDSLKGRCSRENCKYLHPPTHLKTQLEINGRNNLIQQKTAAAMLAQQMQFMFPGTPLHPVPTFPVGPAIGTNTAISFAPYLAPVTPGVGLVPTEILPTTPVIVPGSPPVTVPGSTATQKLLRTDKLEVCREFQRGNCARGETDCRFAHPADSTMIDTSDNTVTVCMDYIKGRCMREKCKYFHPPAHLQAKIKAAQHQANQAAVAAQAAAAAATVMAFPPGALHPLPKRQALEKSNGTSAVFNPSVLHYQQALTSAQLQQHAAFIPTVPMMHSATSATVSAATTPATSVPFAATATANQIILK,soluble
15,MLCAVYKSSRKADTYLFVNKRDCFDDVPQALLDMFGVPQLVMVFPIVKRESLGIADINKVRAALEEKGFYLQIPPPQVNLLAEHRENLGIKD,soluble
16,MSAETYVMEIDGGPGDLHCMKCLKICNYLKDSYCCKKTKNMTLPQKKAESAFLMICLQRNTIELMVTALLANKKIIDSKGNCAFCRNKKQHEEEKWCAGRTKLQLFLHRIDKDELKVEEYLEKYLEIKTRNRMEQLDIVQARIVREMKAVAIAQGKSEEEVEHILAKQGRKARRMQRSEYKHAEEDNKGVRQRLAAKLVAKKSEIIERFCLAQRTVFVKADCPNVYGRTTTHISYLLE,not soluble
17,MDQLFYNGPPDYVEIEDRAITTEPGASIQAAPGAIWMEALPAIEGIPAGLEYLAYLDTVMVHQVKEVLEILTGWESKNKYAIRNKNGQQCYYAFEESNAWERQCCGSQRGFTMHIVDNFNKNVLIVKRELRCCADSFCGCLLGLQNICTIESLSTGLLGTVLQGYGCTNSFYNILDKDGNLIFLVDGQGCCTSCCCEDKDFTIKTPDSSVPIGSITKKWGGLLREAFTDADTFAVTFPIDLDVKLKAILLGATFLIDFVEFENNN,not soluble
18,RPDPQEIEAQRKAAIEAARQDSIAKAEAELLAARTQGATPDSIKQAAGYNQYGLLAAATAGAEEQVELANGKIALKLSTKGGAIREVLLRDYKTHDGKPLYLFREGESDFNLPLRTVDNRLVDTRDLYFSPISRTDSSVVMRLAVDSASYLDLAYVLLPDDYRLRMTVSGQNLQSLFPANMTMQDLEWSQRIRRQEKSWKFENQYTSIYYKYSGDEVDRLSDSKQEDKKTLEEPLHWVSFKDKYFASVLVCDSYFENNKLAQKTAAAGSDYLKNCTMSATFPLDVRSGTKARFTFFFGPLKYNMLRAYDKGMKAEDNLDLDHLVYLGASIFRWINRYMIIPASTFLQQYFSN,not soluble
19,MSLTEKKCTVMLSKFKRNKHQQHLAQLPKISQSVDDVDFFYAPADFRETLLEKIASAKQRICIVALYLEQDDGGKGILNALYEAKRQRPELDVRVLVDWHRAQRGRIGAAASNTNADWYCRMAQENPGVDVPVYGVPINTREALGVLHFKGFIIDDSVLYSGASLNDVYLHQHDKYRYDRYHLIRNRKMSDIMFEWVTQNIMNGRGVNRLDDVNRPKSPEIKNDIRLFRQELRDAAYHFQGDADNDQLSVTPLVGLGKSSLLNKTIFHLMPCAEQKLTICTPYFNLPAILVRNIIQLLREGKKVEIIVGDKTANDFYIPEDEPFKIIGALPYLYEINLRRFLSRLQYYVNTDQLVVRLWKDDDNTYHLKGMWVDDKWMLITGNNLNPRAWRLDLENAILIHDPQLELAPQREKELELIREHTTIVKHYRDLQSIADYPVKVRKLIRRLRRIRIDRLISRILEGHHHHHH,not soluble
20,MREIIFLVEEAEEGGFVARALGEAIFTEGETWEELKEMVRDAVRCHFGEEAPPIIRLHFVREEVLTP,soluble
21,SVICCAAVNCSNRQGKGEKRAVSFHRFPLKDSKRLIQWLKAVQRDNWTPTKYSFLCSEHFTKDSFSKRLEDQHRLLKPTAVPSIFHLTEKKRGAGGHGRTRRKDASKATGGVRGHSSAATGRGAAGWSPSSSGNPMAKPESRRLKQAALQGEATPRAAQEAASQEQAQQALERTPGDGLATMVAGSQGKAEASATDAGDESATSSIEGGVTDKSGISMDDFTPPGSGACKFIGSLHSYSFSSKHTRERPSVPREPIDRKRLKKDVEPSCSGSSLGPDKGLAQSPPSSSLTATPQKPSQSPSAPPADVTPKPATEAVQSEHSDASPMSINEVILSASGACKLIDSLHSYCFSSRQNKSQVCCLREQVEKKNGELKSLRQRVSRSDSQVRKLQEKLDELRRVSVPYPSSLLSPSREPPKMNPVVEPLSWMLGTWLSDPPGAGTYPTLQPFQYLEEVHISHVGQPMLNFSFNSFHPDTRKPMHRECGFIRLKPDTNKVAFVSAQNTGVVEVEEGEVNGQELCIASHSIARISFAKEPHVEQITRKFRLNSEGKLEQTVSMATTTQPMTQHLHVTYKKVTP,soluble
22,MGSDKIHHHHHHMTIQKHFPTVEMADIHFELIGGLSSQSWRIRGPGIEWLARRQSPVERKMGVDRQREFALLRQMSAVGLAPRPLLWRDGWLIVEWVPGRIATSDEFLMMLANGEVARVLSQLHRQPRSGHPLNFKILFAQHWQLMDPCRRSPALLRAHHHFQRAALPTPLALVPLHLDVHAENLLITPQGTMLIDWEYASDGDIAFELAFIVRASQMDSVAQTYFLQSYQRHRRGFSVSRLQQQMMQWFPWVDYLVLMWFEVRWQQTKNLEFLAEIPALRHRLQLG,not soluble
23,MIEVISATALATVQDLGRHGSLGYGVGTSGAMDTLSLRLGNLLLGNAEDAAGIEIPLFPFEVRFVEDCTFAITGAACSAKLDGGRLPGNWAAQARKGQVLKLSYPTTGSRAYLCLAGGVDVPPVLGSRSTQLRGAFGGWQGRALQQGDVIPAGAANQQRAGDFGLESAVAGLPLMLDGLPAIRVLPAAEFDCFSVEAQDTFFAGEWKITTQSNRYGYRMEGTPLLAREALEIRSHGIVPGVIQVPHGGQPIVQMRDAQPSGGYPKFATVIEADLWRLGQAPIGSKVRFVQCSYEQAIEALDTNHAFIEDARRLLALRGLQGHRLEHHHHHH,not soluble
